According to US7012128B2, “Interaction between cyclin D1 and steroid receptor co-activators and uses thereof in assays” (TopoTarget UK Limited, priority 1998, dated 2006):

How the values were obtained:
Type in all cases: cell-based
[1] = target: E2F-1 transcription factor (Homo sapiens, UniProt Q01094); experiment: Effect on E2F-1 transcription factor (data not shown)
wild type ER = experiment: ERE-TATA-luciferase transactivation of wild type ER in COS-7 cells; conditions: COS-7, 3 μg SRC1-DN, 10 nM ligand
Protocol: FIG. 1. Mapping of the region of cyclin D1 required for ER-mediated transactivation. • (A) The effect of cyclin D1 deletion mutants on ER activation in the presence of ligand. The cyclin D1 derivatives used in this study are shown in the left panel; right side of Figure represents the relative capacity of the mutants to potentiate ERE-dependent transcription. ER-negative COS-7 cells were transfected with expression vectors for wild type ER (200 ng), cyclin D1 or cyclin D1 mutants (2.5 μg), an internal control §-galactosidase plasmid (0.5 μg) and an ERE-TATA-luciferase reporter (3 μg). The effect on ER transactivation of wild type cyclin D1 was set to 100%. These studies were performed in three separate experiments and expressed as mean values with standard deviation less then […]. The alignment of leucine-rich motif of ER with D-type cyclins are shown on the bottom; the leucine-rich motif in cyclin D1 is indicated as a dark box. The identifiers for the sequences shown are as follows: Cyclin D1 (SEQ ID NO:11), Estrogen receptor (SEQ ID NO:12), the Cyclin D2 (SEQ ID NO:13), and the Cyclin D3 (SEQ ID NO:14). • (B) ER activation by D-type cyclins, cyclin D1 L254/255A point mutant (D1-LALA) and SRC-1 in the presence of ligand. COS-7 cells were transfected with D-type cyclin expression vectors, cyclin D1 Leucine-to-Alanine point mutant (D1-LALA) or SRC-1 expression vector together with wild type ER expression vector, an ERE-TATA-luciferase reporter plasmid and the internal control β-galactosidase construct. Data are expressed as relative luciferase activity compared with basal ERE-luciferase activity of wild type ER and are normalized for transfection efficiencies.
FIG. 3. Role of coactivators in cyclin D1—induced transactivation. • (A) Effect of a dominant negative form of SRC-1 (SRC1-DN) on ER transactivation. SRC1-DN encoding amino acids 1245-1441 of SRC-1 (1, 2.5 and 5 μg) was introduced by transient transfection together with wild type ER (200 ng) and was tested for its ability to modulate ERE-dependent transcription. • (B) Effect of SRCI-DN on SRC-1 and TIF 2 mediated ER transactivation. SRC-1 (3 μg) or TIF-2 (3 μg) were transfected with SRC1-DN (3 μg) and tested for ER transactivation. • (C) Effect of SRC1-DN on cyclin D1-induced transactivation of ER 1-535 mutant. Cyclin D1 was cotransfected with SRC1-DN (1, 2.5, 5 μg) and tested for its effect on an ER harboring a deletion of coactivator binding site in helix 12 (ER 1-535). • (D) Effect of SRC1-DN on cyclin D1-induced transactivation of ER L543/544A mutant. Cyclin D1 and SRC1-DN (1, 2.5, 5 gg) were transfected and tested for the activity of ER helix 12 point mutant (ER L543/544A). The transient transfections (A-C) were performed in COS-7 cells, which were maintained in DMEM with 10 nM ligand. The relative activity was calculated by normalizing to the internal control and was divided by luciferase activity of ER (mutant) in the presence of ligand. The transfection for each set of conditions were done at least in four independent experiments and expressed as average ±SD.
To study how cyclin D1 activates ER, cyclin D1 deletion mutants were tested for their effect on ER-transactivation. COS-7 cells were transfected with cyclin D1 mutants, together with ER and a luciferase reporter gene construct driven by a minimal TATA promoter linked to an estrogen response element (ERE). […] This part of the protein is not involved in CDK interaction and is poorly conserved among the different cyclins. […] To test the relevance of this leucine-rich domain of cyclin D1 in ER activation, a cyclin D1 mutant was constructed in which leucines 254 and 255 were mutated to alanines (D1 L254/255A). This mutation in cyclin D1 is similar to the mutation in ER (ER L543/544A) that interferes with coactivator binding to AF-2 (Danielian et al., 1992). […]

[2] = system: ER 1-535 and ER L543/544A mutants; experiment: ERE-TATA-luciferase transactivation of AF-2 mutant ERs in COS-7 cells; conditions: COS-7, 1, 2.5, 5 μg SRC1-DN, 10 nM ligand
Protocol: FIG. 2. Effect of cyclin D1 on helix 12 mutants of ER. The effect of cyclin D1 on ER mutants was tested in COS-7 cells (A, B) and in U2-OS cells (C, D) in the presence of ligand. An ERE-TATA-luciferase reporter construct was used in transient transfections together with cyclin D1 and ER 1-535 (A, C) or ER L543/544A mutants (B, D). β-Galactosidase served as an internal control. The reporter activity was determined both in the presence (black bars) and in the absence (white bars) of 10 nM 17β-estradiol. The relative luciferase activity was calculated by normalizing to the b-galactosidase activity. The relative reporter activity of wild type ER in the presence of ligand was used as a reference and set at 100%. […] The transfection were performed in at least five separate experiments and expressed as average ±SD.
FIG. 3. Role of coactivators in cyclin D1—induced transactivation. • (A) Effect of a dominant negative form of SRC-1 (SRC1-DN) on ER transactivation. […] The relative activity was calculated by normalizing to the internal control and was divided by luciferase activity of ER (mutant) in the presence of ligand. The transfection for each set of conditions were done at least in four independent experiments and expressed as average ±SD. […]

Sequence of E2F-1 transcription factor (Q01094 whole entry): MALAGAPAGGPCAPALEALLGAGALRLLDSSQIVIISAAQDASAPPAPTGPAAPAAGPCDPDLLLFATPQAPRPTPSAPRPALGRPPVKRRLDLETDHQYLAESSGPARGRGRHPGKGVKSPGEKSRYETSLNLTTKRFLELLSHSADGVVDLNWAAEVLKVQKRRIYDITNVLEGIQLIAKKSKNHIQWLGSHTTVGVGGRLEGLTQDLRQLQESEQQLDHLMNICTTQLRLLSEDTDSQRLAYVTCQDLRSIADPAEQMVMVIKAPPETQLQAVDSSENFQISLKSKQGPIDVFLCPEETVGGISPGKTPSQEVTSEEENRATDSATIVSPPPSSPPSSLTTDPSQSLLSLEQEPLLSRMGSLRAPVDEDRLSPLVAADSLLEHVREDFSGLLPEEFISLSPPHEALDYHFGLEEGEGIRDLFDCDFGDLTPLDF

B1: SRC1-DN: dominant negative mutant of SRC-1 encoding amino acids 1245-1441 of SRC-1 (protein, UniProt Q15788 1245-1441, looked up, fragment)
chain: FAPSLSPGSSMVPMPIPPPQSSLLQQTPPASGYQSPDMKAWQQGAIGNNNVFSQAVQNQPTPAQPGVYNNMSITVSMAGGNTNVQNMNPMMAQMQMSSLQMPGMNTVCPEQINDPALRHTGLYCNQLSSTDLLKTEADGTQQVQQVQVFADVQCTVNLVGGDPYLNQPGPLGTQKPTSGPQTPQAQQKSLLQQLLTE
- effect on E2F-1 transcription factor [1]: inactive
- effect on SRC-1 and TIF2 mediated ER transactivation (wild type ER): inhibited
- effect on cyclin D1-induced activation of the ER AF-2 mutants [2]: markedly repressed
